Patent publication US20040132025A1, “Ampk-related serine/threonine kinase, designated snark” (priority 2001, published 2004)
Marks after values point to notes of the source that are not given here. One block for each compound: values may come before it.

Assays:
AMPK-α2 = target: T1, AMPK-α2 (Rattus norvegicus, UniProt P80385+Q09137); test: AMPK-α2 activity in NRKC cells treated with AICAR; assay type: cell-based; conditions: ImM AICAR, same assay conditions, data not shown
T1 construct: increased at least 2-fold upon treatment with ImM AICAR in NRKC cells; endogenous in cells; host or cells: NRKC (neonatal rat keratinocytes)

SNARK [1] = target: T2, SNARK (Rattus norvegicus, UniProt Q66HE5); test: Activation of SNARK in NRKC cells using AICAR; assay type: cell-based; set-up: In the assays performed with SNARK immunoprecipitated from NRKC cell lysates; endogenous in cells; host or cells: NRKC (neonatal rat keratinocytes); conditions: 1 mM AICAR for one hour, kinase assay with 200 μM AMP and SAMS peptide, p<0.05
T2 sequence (Q66HE5 1-630): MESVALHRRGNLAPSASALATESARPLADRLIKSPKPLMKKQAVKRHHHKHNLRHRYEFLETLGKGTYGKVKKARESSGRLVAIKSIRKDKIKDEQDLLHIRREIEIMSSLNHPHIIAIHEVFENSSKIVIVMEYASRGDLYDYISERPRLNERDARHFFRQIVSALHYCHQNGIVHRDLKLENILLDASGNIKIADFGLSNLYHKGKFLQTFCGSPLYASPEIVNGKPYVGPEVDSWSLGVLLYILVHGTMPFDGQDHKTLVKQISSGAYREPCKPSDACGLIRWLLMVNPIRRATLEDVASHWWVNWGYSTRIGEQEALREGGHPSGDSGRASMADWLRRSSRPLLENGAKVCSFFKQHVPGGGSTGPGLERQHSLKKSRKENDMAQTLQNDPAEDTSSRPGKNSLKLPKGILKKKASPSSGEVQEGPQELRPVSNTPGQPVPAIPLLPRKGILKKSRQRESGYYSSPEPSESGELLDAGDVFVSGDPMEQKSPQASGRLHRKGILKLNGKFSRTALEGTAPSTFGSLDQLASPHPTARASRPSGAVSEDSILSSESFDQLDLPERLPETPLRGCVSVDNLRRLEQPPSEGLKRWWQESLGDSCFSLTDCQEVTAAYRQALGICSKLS
Method: FIG. 8.(A) Activation of SNARK in NRKC cells using AICAR. NRKC cells were treated with 0, 0.5 mM, 1 mM or 2 mM AICAR for 1 hour. SNARK protein was immunoprecipitated from 500 μg of cell lysates with SNARK antiserum and kinase assays were performed in the presence of 200 μM AMP using the SAMS peptide. Solid box represents control (0 mM AICAR) samples and hatched boxes represent AICAR-treated samples. Data is expressed as phosphotransferase activity relative to control values (control=1) and represents the means±S.E.M. for 2 individual experiments with at least 10 samples per group per experiment. *p<0.06, relative to control values. […] Results are expressed as phosphotransferase activity relative to control values (control=1) and represents the mean±S.E.M. from 2 individual experiments with at least 10 samples per group per experiment. *p<0.03, relative to control values. […]
The adenosine analogue, 5-aminoimidizole-4-carboxamide riboside (AICAR), provides a means of stimulating AMPK activity in whole cells, even in the presence of high glucose concentrations, and mimics the effects of AMP on the AMPK cascade. Intriguingly, SNARK activity was induced 2.8-fold (p<0.05) in NRKC cells when treated with 1 mM AICAR for one hour (FIG. 8A, hatched box), as compared to SNARK activity measured in untreated NRKC cells (solid box).

AMPKα1 = target: T3, AMPKα1 (Rattus norvegicus, UniProt P54645+P80385); test: AMPKα1 activity in NRKC cells treated with AICAR; assay type: cell-based; conditions: treatment with AICAR, data not shown
T3 construct: endogenous in cells; host or cells: NRKC (neonatal rat keratinocytes)

SNARK [2] = target: T2, SNARK; test: SNARK phosphotransferase activity (SAMS peptide) assayed in the presence of AMP, NRKC cell lysates; assay type: biochemical; set-up: In the assays performed with SNARK immunoprecipitated from NRKC cell lysates; endogenous in cells; host or cells: NRKC (neonatal rat keratinocytes); conditions: 200 μM AMP in assay; NRKC cells; p<0.001
Method: (§1) FIG. 7. […] SNARK protein was immunoprecipitated from 500 μg of cell lysate from wildtype BHK, BHK−1, BHK+1 and BHK+11 cells. Kinase assays were performed using the 200 μM SAMS peptide as substrate in kinase reaction cocktail. NRKC cells (stippled box); wildtype BHK cells (solid box); BHK+1 and +11 cells (hatched boxes). Results are the means±S.E.M. for 2 experiments (n=5 each time). For comparative purposes, AMPKα2 activity was assayed in these cell lines and found to be equivalent to, 4-fold lower and 1.5-fold lower than the SNARK activity levels measured under basal growth conditions in wildtype BHK, SNARK-transfected BHK and NRKC cell lines, respectively (data not shown).
(§2) Kinase Assay—Following immunoprecipitation with antiserum, SNARK activity was analysed by performing kinase assays with immunoprecipitated SNARK and a variety of substrates (MBP, B-casein, whole histone fraction, protamine sulphate and a synthetic peptide substrate (HMRSAMSGLHLVKRR, ‘SAMS’ peptide). Kinase assays with the SAMS peptide were performed essentially as described, except that the three washes were done with IP buffer containing 500 mM NaCl followed by a final wash in kinase assay buffer. For kinase assays performed to determine substrate specificity (with substrates other than SAMS peptide), reactions included 30 ug of substrate, 500 nM PKA inhibitor peptide and 1 uM PKC inhibitor peptide. […]

SNARK [3] = test: SNARK phosphotransferase activity (SAMS peptide) assayed in the presence of AMP, wildtype and SNARK-transfected BHK cell lysates; assay type: biochemical, hamster; conditions: 200 μM AMP in assay; wildtype BHK cell lysates
Method: as §1, §2

SNARK [4] = target: T2, SNARK; test: as above; assay type: biochemical, hamster; set-up: The complete open reading frame of rat SNARK was subcloned into the pcDNA3.1 vector; expressed in transfected cells; conditions: 200 μM AMP in assay; SNARK-transfected BHK cell lysates
Method: as §1, §2

SNARK [5] = target: T2, SNARK; test: Kinase assay of immunoprecipitated SNARK with candidate substrates (substrate specificity); assay type: biochemical; set-up: In the assays performed with SNARK immunoprecipitated from NRKC cell lysates; endogenous in cells; host or cells: NRKC (neonatal rat keratinocytes); conditions: for Activity (phosphotransferase activity of SNARK towards substrate): SNARK immunoprecipitated from 500 ug NRKC cell lysate, SAMS peptide 250 uM or 30 ug of other substrate, 1 μM PKC inhibitor and 500 nM PKA inhibitor peptides, 30 C, means±S.E.M.; for Ability of SNARK to phosphorylate the substrate: SNARK immunoprecipitated from NRKC cell lysates, PKA and PKC peptide inhibitors included
Method: Kinase Assay—Following immunoprecipitation with antiserum, SNARK activity was analysed by performing kinase assays with immunoprecipitated SNARK and a variety of substrates (MBP, B-casein, whole histone fraction, protamine sulphate and a synthetic peptide substrate (HMRSAMSGLHLVKRR, ‘SAMS’ peptide). Kinase assays with the SAMS peptide were performed essentially as described, except that the three washes were done with IP buffer containing 500 mM NaCl followed by a final wash in kinase assay buffer. For kinase assays performed to determine substrate specificity (with substrates other than SAMS peptide), reactions included 30 ug of substrate, 500 nM PKA inhibitor peptide and 1 uM PKC inhibitor peptide. Activities were calculated as fmol of phosphate incorporated into the SAMS peptide/min per milligram of lysate subjected to immunoprecipitation, minus the activity obtained with a blank reaction (cell lysate and Protein A-Sepharose only).
Peptide inhibitors of PKA and PKC were included in these reactions to eliminate phosphorylation of these substrates by these enzymes.
Immunoprecipitation of 500 ug of NRKC cell lysate with SNARK antiserum was performed as described above. Phosphotransferase activity was assayed with either SAMS peptide (250 uM) or 30 ug of dephosphorylated MBP, dephosphorylated β-casein, whole histone fraction or protamine sulfate in the presence of 1 μM PKC inhibitor and 500 nM PKA inhibitor peptides. Phosphortransferase activity is expressed in fmol of phosphate transferred to the SAMS peptide/min at 30 C per mg of protein subjected to immunoprecipitation. Results are means±S.E.M. for two individual assays with at least eight samples per group. *p<0.01 compared with all other substrates.

[6] = target: dephosphorylated B-casein; test: cell-based or functional assay
protamine sulfate = test: cell-based or functional assay
SAMS peptide = test: cell-based or functional assay
whole histone fraction = test: cell-based or functional assay
[7] = target: dephosphorylated myelin basic protein; test: cell-based or functional assay

T3 sequence (P54645 whole entry): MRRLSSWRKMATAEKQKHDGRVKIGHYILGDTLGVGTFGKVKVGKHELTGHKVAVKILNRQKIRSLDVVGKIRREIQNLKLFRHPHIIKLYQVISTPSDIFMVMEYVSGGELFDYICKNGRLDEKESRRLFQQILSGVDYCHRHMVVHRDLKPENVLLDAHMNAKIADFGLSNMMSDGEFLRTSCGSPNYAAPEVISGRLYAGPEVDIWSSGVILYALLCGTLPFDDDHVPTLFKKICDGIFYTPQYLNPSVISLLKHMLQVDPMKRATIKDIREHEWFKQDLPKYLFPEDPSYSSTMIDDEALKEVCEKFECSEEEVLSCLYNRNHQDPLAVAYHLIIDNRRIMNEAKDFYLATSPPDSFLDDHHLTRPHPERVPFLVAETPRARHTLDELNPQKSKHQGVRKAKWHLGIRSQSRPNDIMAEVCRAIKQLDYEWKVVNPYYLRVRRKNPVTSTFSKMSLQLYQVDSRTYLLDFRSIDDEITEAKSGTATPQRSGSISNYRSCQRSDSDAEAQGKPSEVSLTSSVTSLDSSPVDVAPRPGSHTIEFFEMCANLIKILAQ
T3 sequence (P80386 whole entry partner): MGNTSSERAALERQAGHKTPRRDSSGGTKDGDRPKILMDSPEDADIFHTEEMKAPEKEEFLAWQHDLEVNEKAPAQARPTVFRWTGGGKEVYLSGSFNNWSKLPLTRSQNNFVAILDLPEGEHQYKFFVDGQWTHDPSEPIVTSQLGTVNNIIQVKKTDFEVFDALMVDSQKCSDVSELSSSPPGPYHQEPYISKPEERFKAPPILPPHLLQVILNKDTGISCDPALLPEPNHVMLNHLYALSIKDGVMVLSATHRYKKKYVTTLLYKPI
T3 sequence (P80385 whole entry): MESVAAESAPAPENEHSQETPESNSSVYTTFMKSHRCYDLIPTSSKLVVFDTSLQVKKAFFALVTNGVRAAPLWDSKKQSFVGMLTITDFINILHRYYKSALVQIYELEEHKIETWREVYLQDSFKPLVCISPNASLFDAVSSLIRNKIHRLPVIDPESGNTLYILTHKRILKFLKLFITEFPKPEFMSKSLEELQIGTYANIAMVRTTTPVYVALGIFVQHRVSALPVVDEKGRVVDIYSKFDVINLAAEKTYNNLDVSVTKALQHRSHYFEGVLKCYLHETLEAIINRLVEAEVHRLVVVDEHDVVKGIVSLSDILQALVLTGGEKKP
T1 sequence (Q09137 whole entry): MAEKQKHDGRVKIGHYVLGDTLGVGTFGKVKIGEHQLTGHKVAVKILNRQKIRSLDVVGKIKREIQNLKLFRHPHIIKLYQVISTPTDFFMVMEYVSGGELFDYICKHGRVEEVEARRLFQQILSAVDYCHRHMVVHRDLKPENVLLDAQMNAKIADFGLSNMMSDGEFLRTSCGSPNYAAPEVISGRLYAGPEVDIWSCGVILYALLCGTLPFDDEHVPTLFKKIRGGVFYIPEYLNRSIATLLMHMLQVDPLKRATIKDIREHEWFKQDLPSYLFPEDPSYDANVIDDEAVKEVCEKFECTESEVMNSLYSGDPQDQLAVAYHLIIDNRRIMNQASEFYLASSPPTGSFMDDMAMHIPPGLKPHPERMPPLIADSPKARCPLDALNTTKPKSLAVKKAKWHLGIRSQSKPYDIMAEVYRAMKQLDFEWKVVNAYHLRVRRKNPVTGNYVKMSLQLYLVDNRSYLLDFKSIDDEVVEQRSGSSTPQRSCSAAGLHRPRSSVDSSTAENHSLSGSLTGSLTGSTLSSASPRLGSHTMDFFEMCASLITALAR
T1 sequence (P80386 whole entry partner): as the sequence (P80386 whole entry partner) above
T1 sequence (P80385 whole entry): as the sequence (P80385 whole entry) above

Compound: NC(=O)c1ncn([C@@H]2O[C@H](CO)[C@@H](O)[C@H]2O)c1N [AICAR, 5-aminoimidizole-4-carboxamide riboside]
Increase in AMPK-α2 activity over basal (AMPK-α2): at least 2 fold | Induction of SNARK activity relative to untreated cells (SNARK [1]): 2.8 fold | Stimulation of AMPKα1 activity (AMPKα1): not stimulated

Compound: Nc1ncnc2c1ncn2[C@@H]1O[C@H](COP(=O)(O)O)[C@@H](O)[C@H]1O [AMP]
Increase in SNARK phosphotransferase activity (SNARK [2]): 1.7 fold | Change in SNARK phosphotransferase activity (SNARK [3]): no significant change | Change in SNARK phosphotransferase activity (SNARK [4]): no significant change

Compound: Protamine sulfate
Activity (phosphotransferase activity of SNARK towards substrate) (SNARK [5]): 7 ± 2 fmol/min per mg | Ability of SNARK to phosphorylate the substrate (SNARK [5]): minimal

Results, then the compound that gave them:

Activity (phosphotransferase activity of SNARK towards substrate) (SNARK [5]): 145 ± 46* fmol/min per mg | Ability of SNARK to phosphorylate the substrate (SNARK [5]): able to phosphorylate
Compound: HMRSAMSGLHLVKRR [SAMS peptide, synthetic peptide AMPK substrate corresponding to the site in rat acetyl-CoA carboxylase phosphorylated by AMPK]

Activity (fmol/min per mg); phosphotransferase activity of SNARK immunoprecipitated from NRKC cell lysate (fmol/min per mg) [6]: 37 | Activity (fmol/min per mg); phosphotransferase activity of SNARK immunoprecipitated from NRKC cell lysate (fmol/min per mg) (protamine sulfate): 7 | Activity (fmol/min per mg); phosphotransferase activity of SNARK immunoprecipitated from NRKC cell lysate (fmol/min per mg) (SAMS peptide): 145 | Activity (fmol/min per mg); phosphotransferase activity of SNARK immunoprecipitated from NRKC cell lysate (fmol/min per mg) (whole histone fraction): 19 | Activity (fmol/min per mg); phosphotransferase activity of SNARK immunoprecipitated from NRKC cell lysate (fmol/min per mg) [7]: 91
Compound: rat SNARK protein (enzyme)
